Laboratory results taken from US20210283212A1 (RA PHARMACEUTICALS, published 2021).
Like-named read-outs stand apart in the source and are kept apart here. Positions of bridges follow the written chain, without caps; N, C: chain ends. Non-standard residues stand in square brackets, D forms with d. Primed or numbered codes have the meaning given here. No end group written: not given here. mXylyl(3) = bridging moiety between the two residues given in brackets; mXylyl″ = bridging moiety between the two marked residues; Trp(7-aza) = N[C@@H](Cc1c[nH]c2ncccc12)C(=O)O; mXylyl(4) = bridging moiety between residues; Phg = N[C@H](C(=O)O)c1ccccc1; Tle = CC(C)(C)[C@H](N)C(=O)O; NMeS = CN[C@@H](CO)C(=O)O; Nva = CCC[C@H](N)C(=O)O

B1: R3041 (peptide)
peptide: Ac-YEN[Tle]YWEYP[Phg][Nva]-NH2
SMILES: CCC[C@H](NC(=O)[C@@H](NC(=O)[C@@H]1CCCN1C(=O)[C@H](Cc1ccc(O)cc1)NC(=O)[C@H](CCC(=O)O)NC(=O)[C@H](Cc1c[nH]c2ccccc12)NC(=O)[C@H](Cc1ccc(O)cc1)NC(=O)[C@@H](NC(=O)[C@H](CC(N)=O)NC(=O)[C@H](CCC(=O)O)NC(=O)[C@H](Cc1ccc(O)cc1)NC(C)=O)C(C)(C)C)c1ccccc1)C(N)=O

Tests used:
Assay in all cases: cell-based or functional assay
[1] = target: T1, human C5 protein (human, UniProt P01031 19-673; P01031 678-1676)
[2] = target: T1, human C5 protein; remark: listed apart in the source
[3] = target: T1, human C5 protein; remark: listed apart in the source
[4] = target: T1, human C5 protein; remark: listed apart in the source
[5] = target: primate C5 protein (primate, UniProt A0A2K5U1T1 19-673; A0A2K5U1T1 678-1676, Mature C5 is a disulfide-linked heterodimer of beta and alpha chains; it is glycosylated. The letters do not carry either feature.)
[6] = target: T1, human C5 protein; remark: listed apart in the source
[7] = target: T1, human C5 protein; remark: listed apart in the source

primate C5 protein, sequence (beta, as listed by the source limits assumed, chain 1 of 2): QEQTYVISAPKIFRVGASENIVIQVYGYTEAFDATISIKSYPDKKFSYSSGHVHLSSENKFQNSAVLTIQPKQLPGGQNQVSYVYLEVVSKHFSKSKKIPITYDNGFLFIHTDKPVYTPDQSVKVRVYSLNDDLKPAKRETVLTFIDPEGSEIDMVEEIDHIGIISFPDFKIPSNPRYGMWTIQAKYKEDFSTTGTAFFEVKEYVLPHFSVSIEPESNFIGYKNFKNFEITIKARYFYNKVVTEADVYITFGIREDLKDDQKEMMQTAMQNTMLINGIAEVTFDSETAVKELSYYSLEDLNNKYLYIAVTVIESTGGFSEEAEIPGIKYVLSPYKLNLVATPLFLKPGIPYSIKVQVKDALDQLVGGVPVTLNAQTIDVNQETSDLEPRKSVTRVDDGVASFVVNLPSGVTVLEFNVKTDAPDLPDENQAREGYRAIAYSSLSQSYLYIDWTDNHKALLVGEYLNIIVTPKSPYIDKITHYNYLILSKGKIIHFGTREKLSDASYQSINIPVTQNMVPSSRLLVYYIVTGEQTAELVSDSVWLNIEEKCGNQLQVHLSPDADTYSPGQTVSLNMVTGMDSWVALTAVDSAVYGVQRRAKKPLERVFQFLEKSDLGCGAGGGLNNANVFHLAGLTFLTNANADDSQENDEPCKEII
primate C5 protein, sequence (alpha, as listed by the source limits assumed, chain 2 of 2): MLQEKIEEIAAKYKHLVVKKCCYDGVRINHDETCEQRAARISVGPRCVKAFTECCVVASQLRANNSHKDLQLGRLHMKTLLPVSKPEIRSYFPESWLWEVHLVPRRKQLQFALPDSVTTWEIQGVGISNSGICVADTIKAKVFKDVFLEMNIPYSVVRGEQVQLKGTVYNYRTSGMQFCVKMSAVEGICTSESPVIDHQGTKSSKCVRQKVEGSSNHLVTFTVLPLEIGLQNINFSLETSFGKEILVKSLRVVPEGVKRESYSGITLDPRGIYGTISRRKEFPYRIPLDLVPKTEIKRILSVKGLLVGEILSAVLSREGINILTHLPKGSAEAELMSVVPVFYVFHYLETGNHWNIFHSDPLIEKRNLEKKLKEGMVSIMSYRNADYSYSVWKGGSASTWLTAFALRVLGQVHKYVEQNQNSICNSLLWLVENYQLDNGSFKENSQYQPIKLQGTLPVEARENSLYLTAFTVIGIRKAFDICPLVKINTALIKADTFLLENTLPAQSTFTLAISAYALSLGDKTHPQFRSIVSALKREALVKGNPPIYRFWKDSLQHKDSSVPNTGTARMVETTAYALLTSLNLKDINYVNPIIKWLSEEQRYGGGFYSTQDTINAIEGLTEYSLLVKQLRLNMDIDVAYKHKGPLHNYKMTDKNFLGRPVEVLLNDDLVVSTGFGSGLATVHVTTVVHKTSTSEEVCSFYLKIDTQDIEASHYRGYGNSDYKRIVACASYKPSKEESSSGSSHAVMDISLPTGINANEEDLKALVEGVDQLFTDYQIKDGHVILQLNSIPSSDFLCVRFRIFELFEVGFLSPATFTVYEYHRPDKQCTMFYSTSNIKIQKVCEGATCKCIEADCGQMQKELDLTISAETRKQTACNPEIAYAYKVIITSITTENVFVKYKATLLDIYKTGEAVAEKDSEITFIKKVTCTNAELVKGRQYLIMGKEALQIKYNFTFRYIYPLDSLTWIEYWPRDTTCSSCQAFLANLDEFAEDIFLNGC

Binder	Avg. IC50 (nM), human hemolysis assay [1]	Avg. IC50, human hemolysis assay [2]	also measured
MCVERFCDVY-NH2 (linker 2-7 via mXylyl(4)) [R3045]	> 100000 nM	> 100000 nM	
Ac-CVERFCDVYWEF-NH2 (linker 1-6 via mXylyl(4)) [R3048]		19.3 nM	Avg. IC50 (nM), human hemolysis assay [3]: 19.3 nM
Ac-CVERFCWEF-NH2 (linker 1-6 via mXylyl(3)) [R3125]		> 100000 nM	Avg. IC50 (nM), human hemolysis assay [3]: > 100000 nM
VCYENGYWEYPGV (Ac-Nvl-C-Y-E-N-Tbg-Y-azaTrp-E-Y-P-Phg-Nvl-NH2) [R3002]			IC50, formation of C5a (C5a EIA on human RBC hemolysis supernatant) [4]: 5.4 nM
MCVERFCDVYW-NH2 (linker 2-7 via mXylyl(4)) [R3044]	> 50000 nM	> 50000 nM	
KVERFDDGYWEYPGK ([cyclo(1,6)]Ac-K-V-E-R-F-D-(N-Me)D-Tbg-Y-azaTrp-E-Y-P-Chg-(Lys-C16)) [R3183]			IC50, hemolysis assay with 1% cynomolgus monkey serum [5]: 4.2 nM; IC50, alternative pathway of complement activation (WIESLAB kit, serum samples) [4]: 12.5 nM; IC50, formation of the MAC (MAC EIA on human RBC hemolysis supernatant) [4]: 6.9 nM
B1		71.3 nM	Avg. IC50 (nM), human hemolysis assay [6]: 71.3 nM
Ac-CVERFCVYWEF-NH2 (linker 1-6 via mXylyl(3)) [R3124]		> 100000 nM	Avg. IC50 (nM), human hemolysis assay [3]: > 100000 nM
MCVERFC-NH2 (linker 2-7 via mXylyl(4)) [R3047]	> 100000 nM	> 100000 nM	
MCVERFCDV-NH2 (linker 2-7 via mXylyl(4)) [R3046]	> 100000 nM	> 100000 nM	
MCVERFCDVYWE-NH2 (linker 2-7 via mXylyl(4)) [R3043]	934 nM	934 nM	
Ac-[Nva]C[Phg]T[Trp(7-aza)]EY[NMeS]HC[Nva]P[Nva]-NH2 (linker 2-10 via mXylyl″) [R3008]		97 nM	Avg. IC50 (nM), human hemolysis assay [7]: 97 nM; IC50, formation of C5a (C5a EIA on human RBC hemolysis supernatant) [4]: 54.5 nM; IC50, formation of the MAC (MAC EIA on human RBC hemolysis supernatant) [4]: 33 nM
